To fix the notation:
B1: CPEB3 Ribozyme (parent)
chain: GGGGGCCACAGCAGAAGCGUUCACGUCGCGGCCCCUGUCAGAUUCUGGUGAAUCUGCGAAUUCUGCUGU

The values below come from the RNAGym collection of RNA variant scans (doi:10.7554/elife.80360).

The variants in this data set derive from B1. Put plainly: self-cleavage, relative activity (ratio to wild type); higher = more cleavage; co-transcriptional.
With GGGGGCCACAGCAGAAGCGUUCACGUCGCGGCCCCUGUCAGAUUCUGGUGUAUCUGUGAAUUCUGCUGU, the self-cleavage worked out at 0.388.
For the variant GGGGGCCACAGCAGAAGCGUUCACGUCGCGGCCCCUGUCAGAUUCUGGUGUAUCUGGGAAUUCUGCUGU, the self-cleavage is 0.238.
The value for GGGGGCCACAGCAGAAGCGUUCACGUCGCGGCCCCUGUCAGAUUCUGGUGACUUUGCGAAUUCUGCUGU was 0.856; that for GGGGGCCACAGCAGAAGCGUUCACGUCGCGGCCCCUGUCAGAUUCUGGUGACUGUGCGAAUUCUGCUGU was 0.562; that for GGGGGCCACAGCAGAAGCGUUCACGUCGCGGCCCCUGUCAGAUUCUGGUGACUAUGCGAAUUCUGCUGU was 0.615.
The value for GGGGGCCACAGCAGAAGCGUUCACGUCGCGGCCCCUGUCAGAUUCUGGUGGAUCUGCGAAUCCUGCUGU was 0.884; that for GGGGGCCACAGCAGAAGCGUUCACGUCGCGGCCCCUGUCAGAUUCUGGUGGAUCUGCGAAUGCUGCUGU was 0.89.
Consider GGGGGCCACAGCAGAAGCGUUCACGUCGCGGCCCCUGUCAGAUUCUGGUGGAUCUGCGAAUACUGCUGU, for which the self-cleavage was found to be 0.98.
Then GGGGGCCACAGCAGAAGCGUUCACGUCGCGGCCCCUGUCAGAUUCUGGUGUAUCUGCGAGUUCUGCUGU, with 0.891.
The value for GGGGGCCACAGCAGAAGCGUUCACGUCGCGGCCCCUGUCAGAUUCUGGUGUAUCUGCGAUUUCUGCUGU was 0.438; that for GGGGGCCACAGCAGAAGCGUUCACGUCGCGGCCCCUGUCAGAUUCUGGUGUAUCUGCGACUUCUGCUGU was 0.378; that for GGGGGCCACAGCAGAAGCGUUCACGUCGCGGCCCCUGUCAGAUUCUGGUGGAUCUGCGAAUUCUGCGGU was 1.01.
As for GGGGGCCACAGCAGAAGCGUUCACGUCGCGGCCCCUGUCAGAUUCUGGUGGAUCUGCGAAUUCUGCAGU, the self-cleavage turned out to be 0.967.
In the case of GGGGGCCACAGCAGAAGCGUUCACGUCGCGGCCCCUGUCAGAUUCUGGUGGAUCUGCGAAUUCUGCCGU, the self-cleavage was 0.99.
Then GGGGGCCACAGCAGAAGCGUUCACGUCGCGGCCCCUGUCAGAUUCUGGUGACUCUGCGAAUUGUGCUGU, with 0.688.
On to GGGGGCCACAGCAGAAGCGUUCACGUCGCGGCCCCUGUCAGAUUCUGGUGACUCUGCGAAUUUUGCUGU, for which the self-cleavage is 0.973.
As to GGGGGCCACAGCAGAAGCGUUCACGUCGCGGCCCCUGUCAGAUUCUGGUGUAUCUGCGAAUUCUGCAGU, the self-cleavage stood at 0.976.
For the variant GGGGGCCACAGCAGAAGCGUUCACGUCGCGGCCCCUGUCAGAUUCUGGUGUAUCUGCGAAUUCUGCGGU, the self-cleavage was 1.
On to GGGGGCCACAGCAGAAGCGUUCACGUCGCGGCCCCUGUCAGAUUCUGGUGUAUCUGCGAAUUCUGCCGU, for which the self-cleavage amounted to 1.01.
Take GGGGGCCACAGCAGAAGCGUUCACGUCGCGGCCCCUGUCAGAUUCUGGUGUAUCUGCGCAUUCUGCUGU: the self-cleavage was determined as 0.645.
Then GGGGGCCACAGCAGAAGCGUUCACGUCGCGGCCCCUGUCAGAUUCUGGUGUAUCUGCGUAUUCUGCUGU, with 0.762.
Consider GGGGGCCACAGCAGAAGCGUUCACGUCGCGGCCCCUGUCAGAUUCUGGUGACUCUGCGAUUUCUGCUGU, for which the self-cleavage stood at 0.476.
The value for GGGGGCCACAGCAGAAGCGUUCACGUCGCGGCCCCUGUCAGAUUCUGGUGUAUCUGCGAAUUCUGCUGC was 1.07; that for GGGGGCCACAGCAGAAGCGUUCACGUCGCGGCCCCUGUCAGAUUCUGGUGUAUCUGCGAAUUCUGCUGA was 1.01; that for GGGGGCCACAGCAGAAGCGUUCACGUCGCGGCCCCUGUCAGAUUCUGGUGUAUCUGCGAAUUCUGCUGG was 1.06.
The value for GGGGGCCACAGCAGAAGCGUUCACGUCGCGGCCCCUGUCAGAUUCUGGUGUAUCUGCGAAUUCCGCUGU was 0.788; that for GGGGGCCACAGCAGAAGCGUUCACGUCGCGGCCCCUGUCAGAUUCUGGUGUAUCUGCGAAUUCGGCUGU was 0.826.
Then GGGGGCCACAGCAGAAGCGUUCACGUCGCGGCCCCUGUCAGAUUCUGGUGUAUCUGCGAAUUCAGCUGU, with 0.799; and GGGGGCCACAGCAGAAGCGUUCACGUCGCGGCCCCUGUCAGAUUCUGGUGACUCUGCGAAUUCUGCUUU, with 0.979; and GGGGGCCACAGCAGAAGCGUUCACGUCGCGGCCCCUGUCAGAUUCUGGUGACUCCGCGAAUUCUGCUGU, with 0.686.
For the variant GGGGGCCACAGCAGAAGCGUUCACGUCGCGGCCCCUGUCAGAUUCUGGUGACUCGGCGAAUUCUGCUGU, the self-cleavage was found to be 0.56.
As to GGGGGCCACAGCAGAAGCGUUCACGUCGCGGCCCCUGUCAGAUUCUGGUGACUCAGCGAAUUCUGCUGU, the self-cleavage worked out at 0.631.
As for GGGGGCCACAGCAGAAGCGUUCACGUCGCGGCCCCUGUCAGAUUCUGGUGUAUCUGCGAAUUUUGCUGU, the self-cleavage turned out to be 0.996.
With GGGGGCCACAGCAGAAGCGUUCACGUCGCGGCCCCUGUCAGAUUCUGGUGUAUCUGCGAAUUGUGCUGU, the self-cleavage was 0.815.
Consider GGGGGCCACAGCAGAAGCGUUCACGUCGCGGCCCCUGUCAGAUUCUGGUGACUCUGCGAAUUCUGGUGU, for which the self-cleavage stood at 0.782.
Then GGGGGCCACAGCAGAAGCGUUCACGUCGCGGCCCCUGUCAGAUUCUGGUGACUCUGCGAAUUCUGAUGU, with 0.68.
On to GGGGGCCACAGCAGAAGCGUUCACGUCGCGGCCCCUGUCAGAUUCUGGUGACUCUGCGAAUUCUGUUGU, for which the self-cleavage is 0.912.
On to GGGGGCCACAGCAGAAGCGUUCACGUCGCGGCCCCUGUCAGAUUCUGGUGACUCUGCGAAUUCUACUGU, for which the self-cleavage is 0.88.
Regarding GGGGGCCACAGCAGAAGCGUUCACGUCGCGGCCCCUGUCAGAUUCUGGUGACUCUGCGAAUUCUUCUGU, the self-cleavage stood at 0.765.
